Experimental data published in US20110020220A1 (DELENEX THERAPEUTICS, published 2011).

Key:
Biotinylated Abeta42 = target: T1, Biotinylated Abeta42 (UniProt P05067 672-713, biotinylated (site not stated)); assay: ELISA, biotinylated Abeta42 on neutravidin plates, ESBA212 0 to 500 nM
T1 construct: domain: Abeta42 (42 amino acid peptide); Captured on neutravidin-coated ELISA plates; also called beta-amyloid42
Protocol: (§1) The binding properties of ESBA212 were tested in an ELISA where Abeta40 and Abeta42, respectively, were used as antigens. 96-well plates were coated with 5 μg/ml neutravidin in dilution buffer (PBS/0.01% BSA/0.2% Tween-20) and incubated overnight at 4° C. The plates were then washed 3 times with TBS/0.005% Tween-20. Biotinylated Abeta40 or Abeta42 (1 μg/ml in dilution buffer) were added to each well and the plate incubated for 15 minutes at room temperature. Plates were washed as above and non-specific binding sites were blocked by addition of dilution buffer. The plates were incubated for another 1.5 hours at room temperature while shaking. After washing the prepared ESBA212 dilutions from 0 to 500 nM were added in triplicates to the wells and incubated for 1 hour at room temperature (RT) while shaking. Plates were washed and ESBA212 was detected by a purified rabbit polyclonal anti-ESBA212 antibody (1:10000 in dilution buffer) for 1 hour at RT. After washing a horseradish peroxidase-labelled anti-rabbit IgG (1:4000 in dilution buffer) was used to detect the previously bound rabbit antibodies and […]. The reaction was stopped by addition of 1 M HCl and the absorption read at 450 nm.
(§2) From the measured ESBA212 curve an EC50 could be calculated.

Biotinylated Abeta40 = target: T2, Biotinylated Abeta40 (UniProt P05067 672-711, biotinylated (site not stated)); assay: ELISA, biotinylated Abeta40 on neutravidin plates, ESBA212 0 to 500 nM
T2 construct: domain: Abeta40 (40 amino acid peptide); Captured on neutravidin-coated ELISA plates; also called beta-amyloid40
T2 sequence (P05067 672-711 limits assumed): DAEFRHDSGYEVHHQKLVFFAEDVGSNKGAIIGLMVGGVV
Protocol: as §1, §2

T1 sequence (P05067 672-713 limits assumed): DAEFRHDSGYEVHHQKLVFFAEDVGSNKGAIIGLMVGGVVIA

EC50 (Biotinylated Abeta42): 1 to 15 nM
EC50 (Biotinylated Abeta40): 1 to 15 nM
B1: ESBA212 (scFv)
scFv: ADIVLTQSPSSLSASVGDRVTLTCRASSSVNYMHWYQQRPGKPPKALIYATSNLASGVPSRFSGSGSGTEFTLTISSLQPEDVAVYYCQQWRTNPPTFGQGTKLEVKRGGGGSGGGGSGGGGSGGGGSQVQLVQSGPEVKKPGASVKVSCTASGYTFTEYTMHWVRQAPGQGLEWMGGVNPYNDNTSYIRKLQGRVTLTVDRSSSTAYMELTSLTSDDTAVYYCARYGGLRPYYFPMDFWGQGTLVTVSS
notes: Humanized scFv with the CDRs of mouse antibody 22C4 on framework 2.3; also called scFv ESBA212; single chain antibody ESBA212
